Common to all, as to experiment: flow cytometry, HEK293 cells transfected with gH alanine mutant and gL; % of gH-positive cells compared to WT
In assay [1] the target is gH alanine mutant 484-485 transfected into HEK293 cells with gL (Human cytomegalovirus (consensus sequence; strain of the construct not stated); Human cytomegalovirus).
Assay [2] has as its target gH alanine mutant 490-491 transfected into HEK293 cells with gL (Human cytomegalovirus (consensus sequence; strain of the construct not stated); Human cytomegalovirus).
Assay [3] has as its target gH alanine mutant 480-481 transfected into HEK293 cells with gL (Human cytomegalovirus (consensus sequence; strain of the construct not stated); Human cytomegalovirus).
Assay [4] deals with gH alanine mutant 486-487 transfected into HEK293 cells with gL (Human cytomegalovirus (consensus sequence; strain of the construct not stated); Human cytomegalovirus).
Assay [5] has as its target gH mutant 480-486 (consecutive alanine substitutions) transfected into HEK293 cells with gL (Human cytomegalovirus (consensus sequence; strain of the construct not stated); Human cytomegalovirus).
Assay [6] addresses gH alanine mutant 488-489 transfected into HEK293 cells with gL (Human cytomegalovirus (consensus sequence; strain of the construct not stated); Human cytomegalovirus).
The target of assay [7] is gH alanine mutant 478-488 (label as in Table 6).
For assay [8], the target named is gH mutant 485-492 (consecutive alanine substitutions) transfected into HEK293 cells with gL (Human cytomegalovirus (consensus sequence; strain of the construct not stated); Human cytomegalovirus).
Assay [9] deals with gH alanine mutant 482-483 transfected into HEK293 cells with gL (Human cytomegalovirus (consensus sequence; strain of the construct not stated); Human cytomegalovirus).

As to “human anti-gH monoclonal antibody MSL-109”, the Avg. binding (% of mass) in assay [1] is 86%; in [2] it was 89%; in assay [3], 87%; in assay [4], 66%; in assay [5], 66%; in assay [6] it was 111%. In addition, the Avg. binding (% of mass) in [7] came out at 100%; in assay [8], 65%; in [9], 92%.
